Reference: article PMC9515155

Columns and labels:
IgE_(TRAP) (human) = IgE_(TRAP) (human) (UniProt P12319); experiment: SPR; ProteOn XPR36, GLC chip; 500 RU of IgE_(TRAP) immobilised in acetate buffer pH 4.0 (850 RU of omalizumab at pH 5.5); human IgE flowed over; PBS with 0.005% Tween-20, 30 μL/min
[1] = target: human IgE (Calbiochem) (human); experiment: SPR; conditions: Fc fusion
human IgE (Calbiochem) (human), sequence (P01854 whole entry, the tested form may be a part): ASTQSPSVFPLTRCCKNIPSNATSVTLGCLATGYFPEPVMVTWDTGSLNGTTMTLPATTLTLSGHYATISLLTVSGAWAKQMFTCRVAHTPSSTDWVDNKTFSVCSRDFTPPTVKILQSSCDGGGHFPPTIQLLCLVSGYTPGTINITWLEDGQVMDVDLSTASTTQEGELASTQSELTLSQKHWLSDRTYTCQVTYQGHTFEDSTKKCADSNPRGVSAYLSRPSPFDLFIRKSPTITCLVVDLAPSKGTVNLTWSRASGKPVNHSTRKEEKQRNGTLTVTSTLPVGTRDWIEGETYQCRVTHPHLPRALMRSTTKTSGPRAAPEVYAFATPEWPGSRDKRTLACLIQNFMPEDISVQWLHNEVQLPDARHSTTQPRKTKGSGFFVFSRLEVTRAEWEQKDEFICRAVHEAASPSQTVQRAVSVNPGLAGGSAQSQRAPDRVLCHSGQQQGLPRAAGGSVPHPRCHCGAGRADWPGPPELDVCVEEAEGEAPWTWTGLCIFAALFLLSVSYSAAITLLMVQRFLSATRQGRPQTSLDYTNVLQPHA

human IgE (Calbiochem) (natural protein), sequence (P01854 whole entry): as the sequence (P01854 whole entry, the tested form may be a part) above

Row | Substance | fold higher binding affinity than omalizumab (IgE_(TRAP) (human)) [fold] | fold lower association rate constant (Ka) than omalizumab (IgE_(TRAP) (human)) [fold] | fold lower dissociation rate constant (Kd) than omalizumab (IgE_(TRAP) (human)) [fold] | Kd [1] [nM] | koff [1] [s⁻¹]
1 | human IgE (Calbiochem) (natural protein) | 69 | 1.5 | 105 |  | 
2 | IgE_(TRAP) (from UniProt P12319 25-205; P01880 133-170; P01861 121-327) |  |  |  | 0.215 | 5.69e-05
